Test results from patent EP4810608A2.

What was measured:
[1] = target: human IL-11 (human) (UniProt P20809); assay: cell-based or functional assay
[2] = target: murine IL-11 (mouse) (UniProt P47873); assay: cell-based or functional assay
UniProt P47873, sequence (P47873 22-199 limits assumed): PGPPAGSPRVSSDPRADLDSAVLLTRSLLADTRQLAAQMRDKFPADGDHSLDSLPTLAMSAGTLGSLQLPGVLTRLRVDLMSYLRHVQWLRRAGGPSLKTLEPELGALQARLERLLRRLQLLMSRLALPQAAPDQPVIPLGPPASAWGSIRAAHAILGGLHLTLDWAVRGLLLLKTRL

UniProt P20809, sequence (P20809 22-199 limits assumed): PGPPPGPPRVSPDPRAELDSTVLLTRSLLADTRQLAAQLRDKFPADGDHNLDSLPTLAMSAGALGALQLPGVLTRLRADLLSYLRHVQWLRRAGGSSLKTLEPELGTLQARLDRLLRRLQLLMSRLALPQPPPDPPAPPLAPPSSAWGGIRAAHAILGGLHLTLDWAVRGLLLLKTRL

percentage of activated (αSMA-positive) human atrial fibroblasts with TGFβ1 (% activated fibroblasts) [1]: 28.3 | percentage of activated fibroblasts normalised to non-stimulated cultures (fold of non-stimulated cultures) [1]: 0.99 | percentage of activated human atrial fibroblasts with TGFβ1, against unstimulated cultures (fold of unstimulated cultures) [1]: 0.89 | percentage of activated fibroblasts normalised to non-stimulated cultures (fold of non-stimulated cultures) [2]: 1.24 | percentage of activated mouse atrial fibroblasts with TGFβ1, against unstimulated cultures (fold of unstimulated cultures) [2]: 1.44 | percentage of activated mouse dermal fibroblasts with TGFβ1 (% activated fibroblasts) [2]: 39.4
Substance: neutralising anti-human IL-11 monoclonal antibody (Monoclonal Mouse IgG2A; Clone #22626; Catalog No. MAB218; R&D Systems, MN, USA)
